The record followed here is publication PMC3078060 (Molecular Biology of the Cell, 2011).

Assay in all cases: pull-down
In one test the target is T1, His6-Vps41 (S. cerevisiae, UniProt P38959 1-992).
T1 sequence: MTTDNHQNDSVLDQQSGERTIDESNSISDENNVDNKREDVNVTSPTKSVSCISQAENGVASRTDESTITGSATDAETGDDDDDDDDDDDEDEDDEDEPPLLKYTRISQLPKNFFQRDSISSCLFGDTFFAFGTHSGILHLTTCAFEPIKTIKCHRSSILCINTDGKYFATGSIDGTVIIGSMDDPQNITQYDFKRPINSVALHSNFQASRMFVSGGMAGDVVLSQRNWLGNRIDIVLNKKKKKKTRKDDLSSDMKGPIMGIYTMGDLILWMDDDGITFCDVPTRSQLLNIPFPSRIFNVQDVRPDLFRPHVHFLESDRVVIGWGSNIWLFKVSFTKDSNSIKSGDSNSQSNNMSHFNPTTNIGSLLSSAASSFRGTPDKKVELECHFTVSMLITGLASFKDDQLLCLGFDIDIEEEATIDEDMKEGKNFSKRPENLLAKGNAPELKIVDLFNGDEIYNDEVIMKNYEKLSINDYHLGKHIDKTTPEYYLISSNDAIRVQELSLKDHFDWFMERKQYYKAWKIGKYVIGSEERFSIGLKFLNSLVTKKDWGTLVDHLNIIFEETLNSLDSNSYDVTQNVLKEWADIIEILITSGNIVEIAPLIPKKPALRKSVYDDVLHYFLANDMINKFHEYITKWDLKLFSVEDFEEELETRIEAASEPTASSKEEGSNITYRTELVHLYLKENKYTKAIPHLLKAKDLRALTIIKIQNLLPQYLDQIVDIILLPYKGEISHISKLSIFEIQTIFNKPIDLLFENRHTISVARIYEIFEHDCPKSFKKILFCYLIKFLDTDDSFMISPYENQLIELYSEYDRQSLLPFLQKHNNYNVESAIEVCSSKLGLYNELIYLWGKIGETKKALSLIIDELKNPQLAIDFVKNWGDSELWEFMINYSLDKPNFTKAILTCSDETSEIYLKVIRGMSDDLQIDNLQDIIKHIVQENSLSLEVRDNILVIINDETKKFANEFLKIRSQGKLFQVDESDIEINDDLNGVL

The next test has as its target T2, His6-Vps39–860Δ (S. cerevisiae, UniProt Q07468 1-860).
T2 sequence: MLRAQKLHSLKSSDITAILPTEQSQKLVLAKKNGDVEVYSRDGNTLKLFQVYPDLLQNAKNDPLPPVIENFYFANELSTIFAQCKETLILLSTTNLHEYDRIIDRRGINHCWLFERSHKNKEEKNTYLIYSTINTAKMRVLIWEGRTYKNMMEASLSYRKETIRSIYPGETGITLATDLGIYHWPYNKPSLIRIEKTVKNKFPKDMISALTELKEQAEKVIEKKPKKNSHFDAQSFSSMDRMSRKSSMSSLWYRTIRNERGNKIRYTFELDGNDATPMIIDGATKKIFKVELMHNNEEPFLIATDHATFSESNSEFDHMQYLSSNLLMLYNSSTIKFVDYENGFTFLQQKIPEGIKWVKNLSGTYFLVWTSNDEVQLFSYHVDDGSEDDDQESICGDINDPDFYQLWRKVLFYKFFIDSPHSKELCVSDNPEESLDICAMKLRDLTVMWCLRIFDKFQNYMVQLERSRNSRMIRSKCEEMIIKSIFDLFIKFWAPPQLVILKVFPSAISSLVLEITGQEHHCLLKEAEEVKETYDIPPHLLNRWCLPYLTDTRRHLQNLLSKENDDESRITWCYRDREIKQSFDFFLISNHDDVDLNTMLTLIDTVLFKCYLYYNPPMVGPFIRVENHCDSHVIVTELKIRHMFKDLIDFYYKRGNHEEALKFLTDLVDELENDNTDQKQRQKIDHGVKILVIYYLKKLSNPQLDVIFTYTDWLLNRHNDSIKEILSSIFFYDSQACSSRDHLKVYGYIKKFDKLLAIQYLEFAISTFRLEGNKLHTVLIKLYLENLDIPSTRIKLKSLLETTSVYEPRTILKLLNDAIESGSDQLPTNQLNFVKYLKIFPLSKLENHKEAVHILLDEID

A further test has as its target T3, His6-Vps3 (S. cerevisiae, UniProt P23643 1-1011).
T3 sequence: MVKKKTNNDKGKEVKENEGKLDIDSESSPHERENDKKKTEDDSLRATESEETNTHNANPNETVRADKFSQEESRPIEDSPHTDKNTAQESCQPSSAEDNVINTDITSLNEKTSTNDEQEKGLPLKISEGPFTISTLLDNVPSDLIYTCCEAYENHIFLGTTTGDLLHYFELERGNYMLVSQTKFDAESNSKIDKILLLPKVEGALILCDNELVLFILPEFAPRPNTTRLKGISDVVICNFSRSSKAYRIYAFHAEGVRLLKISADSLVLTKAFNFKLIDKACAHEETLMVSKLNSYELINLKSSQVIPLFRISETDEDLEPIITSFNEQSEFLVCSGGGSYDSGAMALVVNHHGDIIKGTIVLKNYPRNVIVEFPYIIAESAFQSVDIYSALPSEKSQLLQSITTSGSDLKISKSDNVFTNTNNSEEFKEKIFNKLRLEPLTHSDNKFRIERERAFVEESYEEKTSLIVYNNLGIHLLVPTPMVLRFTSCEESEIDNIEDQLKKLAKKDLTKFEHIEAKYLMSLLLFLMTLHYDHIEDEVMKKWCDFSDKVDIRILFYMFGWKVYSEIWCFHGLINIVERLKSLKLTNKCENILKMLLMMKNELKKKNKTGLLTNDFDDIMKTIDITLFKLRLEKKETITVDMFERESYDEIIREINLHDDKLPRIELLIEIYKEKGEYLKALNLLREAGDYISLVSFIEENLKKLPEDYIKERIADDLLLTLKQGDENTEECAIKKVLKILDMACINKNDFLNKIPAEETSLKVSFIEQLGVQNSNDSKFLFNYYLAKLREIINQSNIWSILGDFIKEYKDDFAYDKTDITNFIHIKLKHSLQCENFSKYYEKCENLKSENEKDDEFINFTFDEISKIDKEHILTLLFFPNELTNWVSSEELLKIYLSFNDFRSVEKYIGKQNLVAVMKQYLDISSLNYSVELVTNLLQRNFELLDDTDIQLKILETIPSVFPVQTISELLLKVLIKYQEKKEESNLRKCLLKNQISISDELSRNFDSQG

B1: GST-Ypt7 (natural protein)
chain: MSSRKKNILKVIILGDSGVGKTSLMHRYVNDKYSQQYKATIGADFLTKEVTVDGDKVATMQVWDTAGQERFQSLGVAFYRGADCCVLVYDVTNASSFENIKSWRDEFLVHANVNSPETFPFVILGNKIDAEESKKIVSEKSAQELAKSLGDIPLFLTSAKNAINVDTAFEEIARSALQQNQADTEAFEDDYNDAINIRLDGENNSCSC
For the molecule B1, the binding result with His6-Vps41 and with His6-Vps39–860Δ was “binds” in each case.

B2: GST-Vps21 (natural protein)
chain: MNTSVTSIKLVLLGEAAVGKSSIVLRFVSNDFAENKEPTIGAAFLTQRVTINEHTVKFEIWDTAGQERFASLAPMYYRNAQAALVVYDVTKPQSFIKARHWVKELHEQASKDIIIALVGNKIDMLQEGGERKVAREEGEKLAEEKGLLFFETSAKTGENVNDVFLGIGEKIPLKTAEEQNSASNERESNNQRVDLNAANDGTSANSACSC
As to B2, the binding result with His6-Vps3 is “binds”.
